Results from PMC2688836 (2010).
Residue numbers refer to the chain shown, from its start. In names and notes the source's numbering stands. One block for each binder: values may come before it.

Target: C-CFTR 1411-1480 (Homo sapiens, UniProt P13569)
Experiment: SPR

C-CFTR 1411-1480, sequence (P13569 1411-1480): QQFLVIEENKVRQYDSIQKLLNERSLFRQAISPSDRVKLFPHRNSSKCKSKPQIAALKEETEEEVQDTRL

Kd: 2500 nM
B1: NHERF1 PDZ2-CT E353A 150-358 (protein)
chain: LRPRLCTMKKGPSGYGFNLHSDKSKPGQFIRSVDPDSPAEASGLRAQDRIVEVNGVCMEGKQHGDVVSAIRAGGDETKLLVVDRETDEFFKKCRVIPSQEHLNGPLPVPFTNGEIQKENSREALAEAALESPRPALVRSASSDTSEELNSQDSPPKQDSTAPSSTSSSDPILDFNISLAMAKERAHQKRSSKRAPQMDWSKKNALFSNL

Kd: 1600 nM
B2: NHERF1 PDZ2-CT L358D 150-358 (protein)
chain: B1 chain with A204E, L209D

Kd: 480 nM
B3: NHERF1 PDZ2-CT E353P 150-358 (protein)
chain: B1 chain with A204P

Kd: 2000 nM
B4: NHERF1 PDZ2-CT 150-358 (protein)
chain: B1 chain with A204E
